Measured values reported in the nanobody polyreactivity screen of Harvey et al. (2022).

Assay: yeast display, Sf9 membrane polyspecificity reagent, FACS + sequencing; frameworks hold sequencing errors
Summary of the method: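 Using colony PCR, genes from sorted yeast display clones were amplified, then sequenced on MiSeq at 2 × 250 and filtered by CDR length. The clones had been stained with 10% biotinylated, detergent-solubilized Sf9 membrane reagent for 1 hour at 4 °C and sorted by FACS into low and high (top ~1%) gates on anti-HA and streptavidin fluorescence. Polyreactivity labels come from the gate of origin.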

Sequence	polyreactivity (PSR sort gate)
QVQLVESRGGLVQAGGSLRLSCPASGSIFPDNAMGWYRQAPGKERELDAAITRGGSTYYADSEKGRFTISRDNAKNTVYLQMNSLKPEDTAVYYCAVVRYYVSMDNWGQGTQVTVSS	high polyreactivity
QVQLVESGGGLVQAGGSLRLSCAASGSTFAYYAMGWYRQAPGKERELVAVISVRGGSTYYADSVKGRFTISRDYAKNTVYLQMNSLKPEDTAVYYCAADTFAGYYYWGQGTQVTVSS	high polyreactivity
QVQLVESGGGLVQAGGSLRLSCAASGFTFVSYAMGWYRQAPGKERELVAVIDNSDGDTYYADSVKGRFTISRDNAKNTVYLQMNSLKPEDTAVYYCAADAVIEWTDWYSAWWYYYWGQGTQVTVSS	low polyreactivity
QVQLVESGGGLVQAGGTLRLSCAASGLIFKKYTMGWYRQAPGKERELVASISKSGGSTYYADSVKGRFTISRDNAKNTVYLQMISLKPEESAVYYCNRVTHYIRFDYWGQGTQVTVSS	low polyreactivity
QVQLEESGGGLVQAGGSLRLSYAASGSIYSYYAMGWYRQAPGKERELVAAISRSGTSTYYADSVKGRFTISRDNAKNTVYLQMNSLKPEDTAVYYFGYYYGGDYWGQGTQVTVSS	high polyreactivity
QVQLVETRGGLVQAGGTLRLSCAASGYTVYRYAKGWYRQAPGKERELVAGISRDGGSTYYADSVKGRFTISRDNAKNTVYLQMNSLNPEDTAVYYCAADKTRYRLGRDYWGQGTQVTVSS	low polyreactivity
QVQLVESGGGLVQAGGSLRLSCAASGFTLGSYVMGWSRQAPGKERELVARITWSGGSTYYADSVKGRFTISRDNAKNTVYLQMNSLKPEDTAVYYCNTGYWARLAYWPFNYKWDDYWGQGTQVTVSS	high polyreactivity
QVQLVESGGGLVKAGGSLRLSSAASGRTFFRNAMGWYRQEPGKERELVAVISDNGGTNYADSVKGRFTMSRDNAKNTVYLQLNSLKPEDTAVDYCATPKRRRYPYYYWGLGTQVTVSS	high polyreactivity
QVQLVESGGGLVQAGGSLRLSCAASGSILVNAIGWYRQAPGKEREFVAAISSGGSTKYADSVKGRFTMSRDNATNTDYLLMNSLKPEDTEVYYCAARVVTSRLSGGTTHPFILYYWGQGTQVTVSS	high polyreactivity
QVQLVESGGGLVQAGGSLRLSCAASGRTIRYNAMGWYRQAPGKERELVAAITGSGGSTYYADSVKGRFTISRDNAKNTVYLQMNSLKPEDTAVYYCNAVGIWFPIRLIVPYDYWGQGTQVTVSS	low polyreactivity
QVQLVESGGGLVQAGVSLRLSCAASGSTFIRNAMGWYRKAPGKERELVAAISSGGASTHYADSVKGRFTISRDNAKNTVYLQMKSLKPEDTAVYYCSATHRWYYWPGIPAYDYWGQGTQVTVSS	low polyreactivity
QVQLVESGGGLVQAGGSLRLSCAASGRIYYTYAMGWYRQAPGKERELVAAIRRGGSTNYADSVKGRFTISRDNAKNTVYLQMNSLKPEDTAVYYCAADVYRASFWYGYWGQGTQVTVSS	low polyreactivity
QVQLVESGGGLVQAGGSLRLTCAASGRIFYQYALGWYRQAPGKERELVSSITTSGGNTYYADSVKVRFTISRDNAKNTVYLQMNSLKPEDTAVYYCASRFNWRQWLYEYWGQGTQVSVSS	low polyreactivity
QVQLQESVGGLVQAGGSLRLSCAATGTIFTDRFMGWYRQAPGKERELVAGISQGTSTNYADSVKGRFTISRDNAKNTVYLQMNSLKPEDTAVYYCAADLSTGNTLPYWGQGTQVTVSS	high polyreactivity
QVQLVETGGGLVQAGGSLRLSCAASGFILSLYAMGWYRQAPGKERELVAAISRSGASTSYADSVKGRFTISRDNAKNSVYLQMNSLKPEDTAVYYCNVRRWPYSPGYDYWGQGTQVTVSS	high polyreactivity
QDQHVESGGGLVQAGGSLRLSCAASGIIFYDNTMGWYRQAPGKERELVASITWRGGSTYYADSVKGRFTISRDNAKNTVYLQMNSLKPEDTAVYYCNADSSDDYDYWGQGTQVTVSS	low polyreactivity
QVQLVESGGGLVQAGGSLRLSCAASGIIFPYYAMGWYIQAPGKERELVASISSRGSSTYYADSVKGRFTISRDNAKNTVFLQMNSLKPEDTAVYYSAAQNFYRYYWGQGTQVTVSS	high polyreactivity
QVQLVESGGGLVQAGGSLRLSGAASGSTFGWYVMGWYRQAPGKERELVASITGSGGSTYYADSVKGRFTISRDHAKNTVYLQMNSLNPEDTAVYYCAAHTGWYDDWTHDSWGQGTQVTVSS	low polyreactivity
QVQLVESGGGIVQAGGSLRLSCAASGRTFSWNTMGWYRQAPGKERELVAAITRVGTTYYADSVKGRFTISRDNAKNTVYLQMNSLKPEDTAVYYCAVKGPRWAYPGVDYWGQGTQVTVSS	high polyreactivity
QVQLVESGGGLVQAGGSLRLSCAASGIIFFAYAMGWYRQAPGKERELVAAISSSGGRTYYSDSVKGRFTISRDNAKNTVYLQMNSMIPEDTAVYYCTARWHGSFDYWGQGTQVTVSS	low polyreactivity
QVQLVESGGGLVQAGGSLRLSCAASGSIFYYNTMGWYRQAPGKERELVAAITSTGRTNYADSVKGRFTISRDNAKNTVYLQINSLKPVDTAVYYCAKRRFGDGDYWGQGTQVTVSS	low polyreactivity
QVQLVESGGGLVQAGGSLRLSCAASGSIFWSNAMGWYRQAAGKERELVASITRSGGSTYYADSVKGRFTISRDNAKNTVYLQMNSLKPEDTAVYYCAARTRGSSYHFDYWGQGTQVTVSS	high polyreactivity

Sequence	polyreactivity (PSR sort gate)
QVQLVESGGGLVQAGGSLRLSCAASGSTFTTNAMGWYRQAPGKERELVAAISWSGTTTYYADSVKGRFTISRDNAKNTVYLQMNSLKPEDTAVYYCAAQVVSGTVAYLDFGYWGQGTQVTVSS	low polyreactivity
QVQLVESGGGLLQAGGSLRLSCAASGGTFTWYAMGWYRQAPGKERELVAAISSDGSTYYADSVKGRFTISRDNAKNTVYLQMNSLKPEDTAVYYCAAYSSWGGFDYWGQGTQVTVSS	low polyreactivity
QVQLVESGGGLVQAGGSLRLSCAASGRIFQYYAMGWYRQAPGKERELVAAINSSGGRTYYADSVKGRFTISRDTAKNTVYLQMNSLTPEDTAVNSCNAVLSTRGMDYWGQGTQVTVSS	high polyreactivity
QVQLVESGGGLVQAGGSLRLSCAASGRIFYYYALGWYRQAPGKERELVAAISSIDGTTYYADSVKGRFTISRDNAKNTVYLQMNSLKPEDTAVYYCAAEDPADQYDYWGQGTQVTVSS	high polyreactivity
QVQLVESGGGLVQAGGSLRLSCAASGSTFSVYAMGWYRQAPGKERELVARITGGSTYADSVKGRFTISRDNAKNTVYLQMNSLKPEDTAVYFCNAYRYWSPGYDYWGQGTQVTVSS	low polyreactivity
QVQLVESGGGLVQAGGSLRLSCAASGRTFPFYAMGWYRQAPVKEREFVAAITASGDSTYYADSVKGRFTISRDNAKYTVYLQMNSLKPEDTAVYYCAADLPVWYVTRYDYWGQGTQVTVSS	low polyreactivity
QVQLVESGGGLVQAGGSLRLSCAASGSTFARYTMGWYRQAPGKERELVAAITSNGVSTYYADSVKGRFTISRDNAKNTVYLQMNSLKPEDTAVYYCAASSRSRYGRNDYWGQGTQVTVSS	low polyreactivity
QVQLVESGGGLFQAGGSLRLSCAASGFTFHRNAMGWYRQAPGKERELVAAITLNGGSSTYYADSVKGRFTISRDNAKNTVYLQMNSLKAEDTAVYSCALDSYSYTFSKNSDPAEYEYWGQGTQVTVSS	low polyreactivity
QVQLVESGGGLVQAGGSLRLSCAASGSIFRLNAMGWYRQAPGKERELVAAISVSGTRTYYADSVKGRFTISRDNAKNIVYLQMNSLKPEDTAVYYCAARVYKGQGKGDYWGQGTQVTVSS	high polyreactivity
QVQLVESGGGLVQAGGSLRLSCAASGSIIKRNAMGWYRQAPGKERELVASISSGDGSTNYADSVKGRFTISRDNAKNTVYLQMNSLKPEDTAVYYCNAPFWGYRTSFSYPVVQRFDYWGQGTQVTVSS	low polyreactivity
QVQLVESGGGLVQAGGSLRLSCAASGRTFGRYAMGWYRQAPGKERELVAAISSSGGRTNYADSVKGRFTISRDNAKNTVYLQMNSLKPEDTAVYYCAAAGQRPYEKGDYWGQGTQVTVSS	low polyreactivity
QVQLVESGGGLVQAGGSLRLSCAASGRIFGYYAMGWYRQAPGKERELVAAINSGSRTYYADSVKGRFTISRDNAKNTVYLQMISLKAEDTAVYDCAASVRYPPYRSSDGQRGGYWGQGTEVTVSS	high polyreactivity
QVQLVESGGGLVQAGGSLRLSCAASGSTRYNAMGWYRQAPGKERELVASIRGNAGSTYYADSVKGRFTISRDNAKNTVYLQMNSLKPEDTAVYYCNARYWYRYGGYKPVGGYYWGQGTQVTVSS	high polyreactivity
QVQLVESGGGLVQAGGSLRLSCAASGIIFSIYAMGWSRQAPGKERELVAAISGRGGRTYYADSVKGRFTMSRDNAKNTVYLQMNSLKPEDTAVYFCAAGAHAYAHYSWFYFRMHYWGQGTQVTVSS	low polyreactivity
QVQLVESGGCLVQAGGSLRLSCAASGSTFWGYTMGWYRQAPGKVRELVAAISSDGSTNYADSVKGRFTISRDNAKNTVYLQMNSLKPEDTAVYDCNTVYDPDTGQSDSWGQGTQVTVSS	low polyreactivity
QEQLQESGGGLVQAGCSLRLSCAANGYIFSVEYMGCYCLAPGKEREFVATINYDTSTYYADSVKGRFTISRDNAKNTVYLQMNSLKPEDTAVYYCAAYFYAYRSPGYWGLGTQVTVSS	high polyreactivity
QVQLVESGGGLVQAGGSLRLRCAASGSTCWFSAMGWSRQATGTERELVATITIGARTYADSVKGRCTISRDNPKTTVYVQMNSLKPEETAVYYCAARRRRLEYDYGRNDYWGQGTQVTVTS	low polyreactivity
QVQLVESGGGLVQAGGSLRLTSADSGRTLYNYAMRWYRQAPGKERELVAGISSAGSTNYADSVKGRFTISRDNAKNTVYLQMNSLKPEDTAVYYCNAVLRRRWVTFYYWGQGPQVTVSS	high polyreactivity
QVQLVESGGGLVQAGGSLRLSCAASGSTFPWNAMGWYRQAPGKERELVAAINYGNGSTYYADSVKGRFTISRDNAKNTVYLQMNSLKPVDTAVYYCNADFTGTRSDSVTPEYEYWGQGTQVTVSS	low polyreactivity
QVQLVESGVGIVQAGGSLRVSCAASGFTFYSYAKGWYRQAPGKERELVAAISYTGGSTYYADSVKGRFTISRDNAKNTVSLQMNSQKPEDSAVYYCAAKLWTRVTRMRRWVDYWGQGTQVSVSS	high polyreactivity
QVQLVESGGGLVQAGGSLRLSCAASGSISPQNVMGWYRQAPGKERELVAAITGGGSTNYADSVKGRFTISRDNAKQTVYLQLNSLKPEDTAVYYCNADYFQDRLDYWGQGTQVTVSS	low polyreactivity
